Measurements from patent publication US20090148513A1 (AbbVie / Abbott, published 2009).

Target: rHuTNF (human, UniProt P01375 77-233)
Test: cell-based or functional assay

Sequence of rHuTNF (P01375 77-233 limits assumed): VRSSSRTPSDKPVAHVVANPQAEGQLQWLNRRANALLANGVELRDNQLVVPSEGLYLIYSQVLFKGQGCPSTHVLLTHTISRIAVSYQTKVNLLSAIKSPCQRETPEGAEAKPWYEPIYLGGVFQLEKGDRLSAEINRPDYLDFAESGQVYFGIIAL

B1: MAK195F, F(ab')2 fragment of the murine IgG3 monoclonal anti-hTNFalpha antibody MAK195 (other)
light: DIVMTQSHKFMSTTVGDRVSITCKASQAVSSAVAWYQQKPGQSPKLLIYWASTRHTGVPDRFTGSGSVTDFTLTIHNLQAEDLALYYCQQHYSTPFTFGSGTKLEIKRADAAPTVSIFPPSSEQLTSGGASVVCFLNNFYPKDINVKWKIDGSERQNGVLNSWTDQDSKDSTYSMSSTLTLTKDEYERHNSYTCEATHKTSTSPIVKSFNRNEC
heavy: QVQLKESGPGLVAPSQSLSITCTVSGFSLTDYGVNWVRQPPGKGLEWLGMIWGDGSTDYDSTLKSRLSISKDNSKSQIFLKMNSLQTDDTARYYCAREWHHGPVAYWGQGTLVTVSAATTTAPSVYPLVPGCSDTSGSSVTLGCLVKGYFPEPVTVKWNYGALSSGVRTVSSVLQSGFYSLSSLVTVPSSTWPSQTVICNVAHPASKTELIKRIEPRIPKPSTPPGSSCPPGNILGGPSVF
modifications: N-terminal glutamine completely converted into pyroglutamic acid; partial O-glycosylation at SerH222 (about 70% of Fd' fragments non-glycosylated); deamidation of a single asparagine residue (AsnL157)
In the case of B1, the “relative biological activity (neutralisation of rHuTNF cytotoxicity on mouse L-929 cells; mean IC50 of reference standard / IC50 of sample x 100%)” value is reported as 102%.
